The target in the experiment is MucA’ protein (plasmid pKM101 (host species not stated)). As to the kind of experiment: SPR; BIAcore 2000, kinetic analysis at lower ligand densities (577 RU of immobilized β, 1036 RU of immobilized MucA’ on CM5); MucB in the mobile phase; BSA reference cell; apparent constants; data not shown. On the technique in general: Surface plasmon resonance follows binding to a sensor surface in real time, without labels.

B1: MucB protein (enzyme)
chain: MFALIDVNGMYASCEQAFRPDLANRAVAVLSNNDGNIVARNYLAKKAGLKMGDPYFKVRPIIERHNIAIFSSNYTLYASMSARFAAVVESLASHVEQYSIDELFVDCKGITAAMSLDAFGRQLREEVRRHTTLVCGVGIARTKTLAKLCNHAAKTWPATGGVVALDDGARLKKLMSILPVAEVWGVGHRTEKALATMGIKTVLDLARADTRLIRKTFGVVLERTVRELRGEACFSLEENPPAKQQIVVSRSFGQRVETLTDMQQAVTGFAARAAEKLRNERQYCRVISVFIRTSPYSVRDTQYANQATEKLTVATQDSRTIIQAAQALARIWREDIAYAKAGVMLADFSGKEAQLDLFDSATPSAGSEALMAVLDGINRRGKNQLFFAGQGIDNSFAMRRQMLSPDYTTDWRSIPIATIK
Consider B1, for which the Kd turned out to be 1.99 nM, the amount bound (RU) is 355 RU, the off-rate constant (koff) turned out to be 0.000127 s⁻¹ and the kon came to 63900 M⁻¹ s⁻¹.

The koff is the rate constant with which the complex falls apart. By kon is commonly meant the rate constant with which the complex forms.

The values are drawn from PMC6495647.
